In article PMC5861439:

Biological target: Saccharomyces cerevisiae Asf1 (2–169) (Saccharomyces cerevisiae) (UniProt P32447)
Assay: MST

Chain of Saccharomyces cerevisiae Asf1 (2–169) (Saccharomyces cerevisiae) (P32447 2-169): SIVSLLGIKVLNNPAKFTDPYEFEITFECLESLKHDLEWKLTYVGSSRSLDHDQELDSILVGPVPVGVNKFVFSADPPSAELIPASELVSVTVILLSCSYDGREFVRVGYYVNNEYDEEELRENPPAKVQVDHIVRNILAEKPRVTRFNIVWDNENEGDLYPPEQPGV
Chain of full-length Saccharomyces cerevisiae Rtt109 (Q07794 whole entry): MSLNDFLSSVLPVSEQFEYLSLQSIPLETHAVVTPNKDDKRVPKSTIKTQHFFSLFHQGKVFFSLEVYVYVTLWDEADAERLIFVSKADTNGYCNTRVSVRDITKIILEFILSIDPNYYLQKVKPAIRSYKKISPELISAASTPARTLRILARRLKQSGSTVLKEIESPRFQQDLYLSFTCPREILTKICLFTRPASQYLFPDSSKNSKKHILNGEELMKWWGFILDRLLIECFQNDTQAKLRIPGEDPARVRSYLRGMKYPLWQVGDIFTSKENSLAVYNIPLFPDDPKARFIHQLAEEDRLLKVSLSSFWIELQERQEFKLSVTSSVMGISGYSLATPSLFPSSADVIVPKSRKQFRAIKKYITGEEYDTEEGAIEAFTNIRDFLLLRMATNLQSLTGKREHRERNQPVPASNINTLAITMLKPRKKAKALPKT
Chain of Rtt109−Vps75_(2) complex (Q07794 whole entry): as above
Chain of Rtt109−Vps75_(2) complex (P53853 whole entry): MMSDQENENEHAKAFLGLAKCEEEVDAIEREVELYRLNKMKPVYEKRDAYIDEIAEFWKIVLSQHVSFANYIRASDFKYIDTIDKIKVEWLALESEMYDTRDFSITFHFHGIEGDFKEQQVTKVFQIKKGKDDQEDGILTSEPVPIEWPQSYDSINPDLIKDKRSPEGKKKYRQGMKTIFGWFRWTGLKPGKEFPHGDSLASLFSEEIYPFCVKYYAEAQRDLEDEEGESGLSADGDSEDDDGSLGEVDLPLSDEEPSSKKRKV

Kd [µM]	Substance
42.7	Rtt109−Vps75_(2) complex (from UniProt Q07794;P53853)
7.63	full-length Saccharomyces cerevisiae Rtt109 (from UniProt Q07794 1-436) (enzyme)
